Test [1] deals with endogenous cell-associated gp-340 on human cell lines (AGS, VK2E6E7, Endo1E6E7, Ect1E6E7, HEC1A, untransfected 293) and human vaginal and cervical tissue (human) (UniProt Q9UGM3). Put plainly: cell-based or functional assay.
Test [2] concerns the target full length gp-340 (exon 1-54) expressed on the surface of 293 cells transfected with pDEST-DMBT1 (clone 1D4) (UniProt Q9UGM3). The test is described as follows: cell-based or functional assay.

Sequence of full length gp-340 (exon 1-54) expressed on the surface of 293 cells transfected with pDEST-DMBT1 (clone 1D4) (Q9UGM3 20-2413 limits assumed, change not shown): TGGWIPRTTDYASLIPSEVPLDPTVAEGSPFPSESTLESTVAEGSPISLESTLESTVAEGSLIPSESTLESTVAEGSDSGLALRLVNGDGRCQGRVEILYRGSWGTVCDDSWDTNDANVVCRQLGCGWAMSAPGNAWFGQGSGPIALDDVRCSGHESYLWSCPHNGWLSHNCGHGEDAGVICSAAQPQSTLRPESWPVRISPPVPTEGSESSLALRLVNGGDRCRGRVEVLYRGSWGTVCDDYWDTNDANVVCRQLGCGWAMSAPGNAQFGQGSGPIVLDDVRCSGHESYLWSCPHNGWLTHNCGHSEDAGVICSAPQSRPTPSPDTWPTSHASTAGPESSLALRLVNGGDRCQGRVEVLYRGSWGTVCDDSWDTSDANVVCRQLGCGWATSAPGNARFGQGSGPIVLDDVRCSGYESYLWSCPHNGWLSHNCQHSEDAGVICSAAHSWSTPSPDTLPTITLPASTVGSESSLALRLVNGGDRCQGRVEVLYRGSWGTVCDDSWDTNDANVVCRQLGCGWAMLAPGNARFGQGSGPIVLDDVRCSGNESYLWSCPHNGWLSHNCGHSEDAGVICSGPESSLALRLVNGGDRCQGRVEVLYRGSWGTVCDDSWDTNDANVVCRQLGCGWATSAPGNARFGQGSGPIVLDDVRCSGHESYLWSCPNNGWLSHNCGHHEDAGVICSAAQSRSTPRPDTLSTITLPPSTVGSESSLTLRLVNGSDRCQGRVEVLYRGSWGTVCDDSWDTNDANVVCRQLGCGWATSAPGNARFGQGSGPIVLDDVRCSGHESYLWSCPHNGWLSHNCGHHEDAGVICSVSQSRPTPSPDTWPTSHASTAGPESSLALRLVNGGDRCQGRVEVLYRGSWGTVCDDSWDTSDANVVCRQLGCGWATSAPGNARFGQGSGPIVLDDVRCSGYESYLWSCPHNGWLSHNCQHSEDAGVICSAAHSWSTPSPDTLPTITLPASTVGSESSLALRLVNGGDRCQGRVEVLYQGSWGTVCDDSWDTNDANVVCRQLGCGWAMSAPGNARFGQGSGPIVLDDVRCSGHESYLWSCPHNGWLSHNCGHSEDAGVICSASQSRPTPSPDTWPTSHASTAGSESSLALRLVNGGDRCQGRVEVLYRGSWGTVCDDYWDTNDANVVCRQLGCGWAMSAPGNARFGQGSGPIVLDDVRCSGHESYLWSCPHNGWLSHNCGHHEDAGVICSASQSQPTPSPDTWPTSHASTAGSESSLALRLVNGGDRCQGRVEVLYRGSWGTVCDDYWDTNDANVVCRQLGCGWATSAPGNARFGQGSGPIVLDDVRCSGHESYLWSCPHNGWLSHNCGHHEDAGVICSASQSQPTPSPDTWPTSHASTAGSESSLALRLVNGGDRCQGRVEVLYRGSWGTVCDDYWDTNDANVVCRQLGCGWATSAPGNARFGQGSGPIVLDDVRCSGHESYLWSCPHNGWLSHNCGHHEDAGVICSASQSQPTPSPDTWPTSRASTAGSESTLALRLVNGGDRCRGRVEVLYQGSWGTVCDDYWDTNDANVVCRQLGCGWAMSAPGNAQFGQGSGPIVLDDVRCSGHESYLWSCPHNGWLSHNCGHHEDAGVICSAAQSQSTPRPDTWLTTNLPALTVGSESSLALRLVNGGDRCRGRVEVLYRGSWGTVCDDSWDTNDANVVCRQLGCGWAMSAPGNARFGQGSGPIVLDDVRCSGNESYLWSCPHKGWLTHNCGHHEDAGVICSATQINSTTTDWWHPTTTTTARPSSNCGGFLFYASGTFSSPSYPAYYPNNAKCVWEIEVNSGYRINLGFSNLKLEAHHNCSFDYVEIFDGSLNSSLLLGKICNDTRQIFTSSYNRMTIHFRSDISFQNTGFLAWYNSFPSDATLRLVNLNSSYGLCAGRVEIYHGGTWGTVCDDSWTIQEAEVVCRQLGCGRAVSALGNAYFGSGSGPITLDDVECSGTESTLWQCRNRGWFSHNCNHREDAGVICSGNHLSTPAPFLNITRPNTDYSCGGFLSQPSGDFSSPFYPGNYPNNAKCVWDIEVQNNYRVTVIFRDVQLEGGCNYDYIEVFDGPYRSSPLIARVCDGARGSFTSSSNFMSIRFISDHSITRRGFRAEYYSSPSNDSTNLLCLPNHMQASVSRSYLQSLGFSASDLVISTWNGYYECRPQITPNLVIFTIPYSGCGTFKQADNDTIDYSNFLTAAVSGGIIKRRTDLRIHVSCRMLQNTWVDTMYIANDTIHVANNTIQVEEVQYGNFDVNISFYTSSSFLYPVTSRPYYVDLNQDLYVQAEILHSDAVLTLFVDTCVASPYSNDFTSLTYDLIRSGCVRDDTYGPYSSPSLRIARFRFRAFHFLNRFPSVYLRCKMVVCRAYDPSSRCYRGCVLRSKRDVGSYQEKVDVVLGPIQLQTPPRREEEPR
Sequence of endogenous cell-associated gp-340 on human cell lines (AGS, VK2E6E7, Endo1E6E7, Ect1E6E7, HEC1A, untransfected 293) and human vaginal and cervical tissue (human) (Q9UGM3 20-2413): as the sequence (Q9UGM3 20-2413 limits assumed, change not shown) above

Consider “HIV-1 Env (gp120) of primary M-tropic strain BL2, on virus particles”, for which, in test [1], the enhancement in viral infectivity (AGS cell trans-infection) was found to be 6 fold and the viral input at which cells were infected in 50% of the wells (AGS cell trans-infection) is 0.08 IU. Also, in test [2], the TCID50 of added virus in trans-infection to PHA-blasts, gp-340 expressing 293 cells against non-exogenously expressing 293 cells turned out to be 6 fold; the mean P24 in 6 wells, clone 1D4 without peptide 6284, 0.11 IU was 184; the mean P24 in 6 wells, clone 1D4 without peptide 6284, 0.33 IU was 239; the percentage of wells infected at 0.11 IU of HIV added (trans-infection, gp-340 expressing 293 cells) stood at 50%. Also, the percentage of wells infected at 0.33 IU of HIV added (trans-infection, gp-340 expressing 293 cells) in test [2] was found to be 100%.

Values taken from patent US20110086028A1.
